Results: article PMC3072069

B1: ACGG (dsDNA)
DNA 1: GCCAACGGTGGC
DNA 2: GCCACCGTTGGC
B2: TCGT (dsDNA)
DNA 1: GCCATCGTTGGC
DNA 2: GCCAACGATGGC
B3: GCGG (dsDNA)
DNA 1: GCCAGCGGTGGC
DNA 2: GCCACCGCTGGC
B4: GC (GGCC), no CpG (dsDNA)
DNA 1: GCCAGGCCTGGC
DNA 2: GCCAGGCCTGGC
B5: CCGG2 (dsDNA)
DNA 1: GCCCCCGGGGGC
DNA 2: GCCCCCGGGGGC
B6: TCGA (dsDNA)
DNA 1: GCCATCGATGGC
DNA 2: GCCATCGATGGC
B7: ACGT (dsDNA)
DNA 1: GCCAACGTTGGC
DNA 2: GCCAACGTTGGC
B8: CCGG1 (dsDNA)
DNA 1: GCCACCGGTGGC
DNA 2: GCCACCGGTGGC

How the values were obtained:
CFP1 CXXC domain [1] = target: T1, CFP1 CXXC domain (Homo sapiens, UniProt Q9P0U4 161-222); assay: ITC
T1 sequence (Q9P0U4 161-222): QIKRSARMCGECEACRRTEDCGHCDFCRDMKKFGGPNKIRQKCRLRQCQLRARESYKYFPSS

CFP1 CXXC domain [2] = target: T1, CFP1 CXXC domain; assay: crystal structure
CFP1 CXXC domain [3] = target: T1, CFP1 CXXC domain; assay: EMSA
[4] = target: CFP1 CXXC domain, longer construct (Homo sapiens, UniProt Q9P0U4 152-222); assay: ITC
Sequence of CFP1 CXXC domain, longer construct (Q9P0U4 152-222): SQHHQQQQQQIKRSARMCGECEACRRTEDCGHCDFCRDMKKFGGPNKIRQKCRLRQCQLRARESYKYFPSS

CFP1 CXXC R213A = CFP1 CXXC R213A (Homo sapiens, UniProt Q9P0U4 161-222, R213A); assay: ITC
Sequence of CFP1 CXXC R213A (Q9P0U4 161-222 R213A): as the sequence (Q9P0U4 161-222) above, with R53A counted along it

CFP1 CXXC Y216A = CFP1 CXXC Y216A (Homo sapiens, UniProt Q9P0U4 161-222, Y216A); assay: ITC
Sequence of CFP1 CXXC Y216A (Q9P0U4 161-222 Y216A): as the sequence (Q9P0U4 161-222) above, with Y56A counted along it

Binder	Kd (CFP1 CXXC domain [1]) [µM]	binding result (CFP1 CXXC domain [2])	also measured
B1	2.5 ± 0.2		
B2		binds	
B3	3 ± 0.2		
B4			binding result (CFP1 CXXC domain [3]): no binding
B5	4.4 ± 0.3		
B6		binds	
B7		binds	
B8	3.5 ± 0.3		Kd [4]: 2.7 ± 0.3 µM; Kd (CFP1 CXXC R213A): 179 ± 30 µM; Kd (CFP1 CXXC Y216A): 11 ± 2 µM
